One may read the EC50 as the concentration that produces a half-maximal response.

Our source for the cell growth inhibited and EC50 values is patent US12227570B2, “Anti-CEACAM6 antibodies and methods of use” (Singapore Health Services PTE LTD, priority 2016, dated 2025).

What all share (assay type): cell-based
For one test, the system named is CL75 GR clone. Put plainly: Mab-ZAP indirect saporin conjugate cell growth inhibition. As to conditions: GR6A04 indirectly conjugated with saporin via anti-mouse antibody. The procedure: (§1) Cells were seeded into a black coated 96 well plate (Grenier Bio-one, UK) at a range of density from 1000-5000 cells per well (depending on the cell type used) and 90 μL per well. The plate was then incubated for 24 hours at 37° C. in humidified air with 5% CO2. After 24 hours, 10 μL of mAb or buffer was added to each well and the plate was again placed at 37° C. in humidified air with 5% CO2. 4 days after addition of mAb or buffer, 100 μL of CTG substrate (Promega, Wisconsin, USA) was added to each well. The plate was then left in the dark for 10 minutes, with vigorous shaking. The cell viability of the samples was then quantified using Tecan I-control (Tecan, Switzerland).

Test [1] concerns PC-9. The test is described as above. As to conditions: GR6A04 indirectly conjugated with saporin via anti-mouse antibody; PC-9 sensitive parental line. The procedure: as §1
In another test the target is A549−GR6A04+. Description: ADCC reporter bioassay (Promega, Luciferase reporter for FcγR). The method, then:
(§2) ADCC activity was measured using a reporter bioassay (Promega; ADCC Reporter Bioassay, #G7010). The ADCC bioassay was carried out according to the manufacturer's protocol Briefly, PC-9 and A549 cells were seeded at 5,000 cells per well in a 96-well clear bottom black tissue culture plates (Corning; #3904) in low 4% IgG-serum (Promega; #G711A) media and allowed to attach and spread overnight. Serial dilutions of Hu-GR6A04 were incubated in triplicate wells for approximately 15 min at 37° C., 5% CO2. Following incubation, engineered effector cells were added to the wells at approximately 150,000 cells per well. After 6 hours, Bio-Glo™ Luciferase Assay Substrate (Promega; #G719A and #G720A) was added to the wells and luminescence was measured using the Infinite® 200 microplate reader (Tecan).
(In general: Reporter assays use an easily measured gene product as a stand-in for the process of interest.)

Test [2] deals with PC-9. Described as above. The procedure:
as §2

B1: GR6A04: mouse IgG1, κ anti-CEACAM6 monoclonal antibody, VH SEQ ID NO:1, VL SEQ ID NO:2, binds N-glycosylated CEACAM6 (antibody, V domains shown)
VH: SGPELVKPGASVKMSCKASGNTFTSYVMHWVKQKPGQGLEWIGYINPYNDGTKYNEKFKGKATLTSDKSSSTAYMELSSLTSEDSAVYYCARSTARATPYFYAMDYWGQGTSVTVSS
VL: DILMTQSPSSLAVTAGEKVTMRCKSSQSLLWSVNQNSYLSWYQLKQGQPPKLLLYGASIRESWVPDRFTGSGSGTDFTLTISNVHVEDLAVYYCQHNHGSFLPYTFGGGTKLEIK
modifications: Isolated antibody fragment
On to B1, for which the cell growth inhibited with CL75 GR clone is given as 28%; with PC-9 [1], 43%. Moreover, the results for the EC50 on A549−GR6A04+ and on PC-9 [2] were 1.33 nM and 39.6 nM, respectively.
